Results published in US20200323888A1, “INHIBITORS” (VESTLANDETS INNOVASJONSSELSKAP AS, priority 2017, published 2020).
Square brackets hold non-standard residues; d marks the D form. Ends that are not written are not given here. Nle = CCCC[C@H](N)C(=O)O; CoA = coenzyme A

T1: NatA complex (Naa15-Naa10) (human, UniProt P41227 1-235; Q9BXJ9 1-866)
T1 sequence (looked up) 1: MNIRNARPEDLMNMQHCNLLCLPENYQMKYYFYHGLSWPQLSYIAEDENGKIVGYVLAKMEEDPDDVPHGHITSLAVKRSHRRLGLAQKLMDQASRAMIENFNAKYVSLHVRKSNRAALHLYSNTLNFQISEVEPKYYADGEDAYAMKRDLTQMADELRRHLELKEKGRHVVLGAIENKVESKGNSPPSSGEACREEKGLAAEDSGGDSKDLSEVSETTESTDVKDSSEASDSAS
T1 sequence (looked up) 2: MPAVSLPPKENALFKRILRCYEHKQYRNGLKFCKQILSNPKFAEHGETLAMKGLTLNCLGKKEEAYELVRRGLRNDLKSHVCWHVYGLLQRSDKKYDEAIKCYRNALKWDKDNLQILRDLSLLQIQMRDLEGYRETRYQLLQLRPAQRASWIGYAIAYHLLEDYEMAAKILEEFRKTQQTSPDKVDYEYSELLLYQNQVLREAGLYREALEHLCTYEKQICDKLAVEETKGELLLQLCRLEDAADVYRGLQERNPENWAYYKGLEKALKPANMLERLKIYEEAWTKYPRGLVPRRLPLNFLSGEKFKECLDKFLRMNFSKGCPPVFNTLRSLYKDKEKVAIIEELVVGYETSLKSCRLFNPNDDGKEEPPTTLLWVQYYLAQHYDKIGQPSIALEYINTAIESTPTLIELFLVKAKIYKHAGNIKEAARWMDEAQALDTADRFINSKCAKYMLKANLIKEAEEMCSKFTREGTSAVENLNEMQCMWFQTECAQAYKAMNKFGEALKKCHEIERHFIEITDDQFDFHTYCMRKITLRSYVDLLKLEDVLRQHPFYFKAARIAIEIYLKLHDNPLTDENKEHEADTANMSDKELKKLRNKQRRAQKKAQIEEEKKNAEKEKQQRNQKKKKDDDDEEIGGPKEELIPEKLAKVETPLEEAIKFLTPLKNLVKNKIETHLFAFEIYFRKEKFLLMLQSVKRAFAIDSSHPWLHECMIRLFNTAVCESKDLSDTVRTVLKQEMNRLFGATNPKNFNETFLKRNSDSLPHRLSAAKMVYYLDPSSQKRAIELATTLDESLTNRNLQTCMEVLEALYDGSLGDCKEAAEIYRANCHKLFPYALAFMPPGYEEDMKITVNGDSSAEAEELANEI

T2: MBP-HishNAA80 fusion protein (MBP-Naa80) (human, UniProt Q93015-2 1-308)
T2 sequence (looked up): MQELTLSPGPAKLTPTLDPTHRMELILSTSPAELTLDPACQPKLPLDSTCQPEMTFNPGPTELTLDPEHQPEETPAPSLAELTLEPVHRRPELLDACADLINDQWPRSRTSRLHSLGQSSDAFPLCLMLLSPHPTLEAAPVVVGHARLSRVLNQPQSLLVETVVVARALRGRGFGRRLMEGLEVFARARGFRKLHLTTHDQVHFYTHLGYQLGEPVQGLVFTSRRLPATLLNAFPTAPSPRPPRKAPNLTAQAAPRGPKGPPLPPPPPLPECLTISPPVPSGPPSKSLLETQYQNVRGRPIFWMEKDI

T3: Naa80 (Homo sapiens, UniProt Q93015)
T3 construct: The PCR product containing the CDS was inserted into the TOPO TA vector; made in house; host or cells: E. coli BL21 Star (DE3)
T3 sequence (Q93015 1-308 isoform Q93015-2): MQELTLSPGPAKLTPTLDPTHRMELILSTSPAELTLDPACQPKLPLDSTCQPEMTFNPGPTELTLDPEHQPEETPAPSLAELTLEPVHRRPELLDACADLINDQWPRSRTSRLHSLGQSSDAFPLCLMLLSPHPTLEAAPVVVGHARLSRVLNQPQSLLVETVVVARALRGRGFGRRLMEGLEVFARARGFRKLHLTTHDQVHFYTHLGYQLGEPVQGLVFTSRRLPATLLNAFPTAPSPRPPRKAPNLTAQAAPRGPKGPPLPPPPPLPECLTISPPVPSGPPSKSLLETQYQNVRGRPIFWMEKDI


Each molecule was assayed against T1, NatA complex (Naa15-Naa10) (assay: cell-based or functional assay). Conditions: not given.

Compared with {CoA-Ac}-SSMP-NH2 [CoA-Ac-SSMP], {CoA-Ac}-SSAA-NH2 [CoA-Ac-SSAA] is 6.5-fold higher in “IC50 (µM), Nt-acetylation inhibition” value: 0.82 µM for the first, 5.3 µM for the second.

Compared with {CoA-Ac}-SSMPV-NH2 [CoA-Ac-SSMPV], {CoA-Ac}-PS[Nle]P (not fully specified (C-terminus); printed as CoA-Ac-PS(Nle)P) [CoA-Ac-PS(Nle)P] is higher in “IC50 (µM), Nt-acetylation inhibition” value: 2.1 µM for the first, over 1000 µM for the second.

Compared with {CoA-Ac}-SSME-NH2 [CoA-Ac-SSME], {CoA-Ac}-SYAE-NH2 [CoA-Ac-SYAE] is 28-fold higher in “IC50 (µM), Nt-acetylation inhibition” value: 1.28 µM for the first, 36.2 µM for the second.

Going from {CoA-Ac}-AASE-NH2 [CoA-Ac-AASE] to {CoA-Ac}-SESS-NH2 [CoA-Ac-SESS], the “IC50 (µM), Nt-acetylation inhibition” value falls from 247 µM to 15.4 µM (16-fold).

Going from {CoA-Ac}-SASE-NH2 [CoA-Ac-SASE] to {CoA-Ac}-SSAE-NH2 [CoA-Ac-SSAE], the “IC50 (µM), Nt-acetylation inhibition” value falls from 62.4 µM to 4.7 µM (13-fold).

{CoA-Ac}-SAAE-NH2 [CoA-Ac-SAAE] and {CoA-Ac}-SSSE-NH2 [CoA-Ac-SSSE] are within 1.5-fold of each other in “IC50 (µM), Nt-acetylation inhibition” value: 12.1 µM for the first, 9.47 µM for the second.

What follows are molecules tested against T2, MBP-HishNAA80 fusion protein (MBP-Naa80) (assay: cell-based or functional assay). Conditions: not given.

In order of falling “Product formation” value:
1. MDELFPLRWGRPVGRRRRPVRVYP [MDEL24]  119 µM
2. DDDIAALRWGRPVGRRRRPVRVYP [DDDI24]  50.5 µM
3. EEEIAALRWGRPVGRRRRPVRVYP [EEEI24]  42.4 µM
4. MKKSYSGRWGRPVGRRRRPVRVYP [MKKS24]  3.37 µM
5. MAPLDLDRWGRPVGRRRRPVRVYP [MAPL24]  2.28 µM
6. MELLSPPRWGRPVGRRRRPVRVYP [MELL24]  2.15 µM
7. MLGPEGGRWGRPVGRRRRPVRVYP [MLGP24]  2.06 µM
8. SESSSKSRWGRPVGRRRRPVRVYP [SESS24]  1.14 µM
9. AVFADLDRWGRPVGRRRRPVRVYP [AVFA24]  -0.96 µM
10. MTNKSSLRWGRPVGRRRRPVRVYP [MTNK24]  -4.25 µM

What follows are molecules tested against T3, Naa80 (assay: Naa80 substrate screening assay (peptide acetylation by purified Naa80)). Conditions: Naa80 mediated acetylation of 24-mer peptide substrates.
Format: biochemical
Source text: In order to investigate the in vitro activity of Naa80 further, an enzyme activity screening assay on purified Naa80 was undertaken using a broad substrate library (including amino acids, nucleosides, coenzymes, amines, saccharides, vitamins, antioxidants and peptides) modified from Kuhn et al. (Kuhn et al. (2013) “Broad-substrate screen as a tool to identify substrates for bacterial Gcn5-related N-acetyltransferases with unknown substrate specificity”. Protein Science 22(2):222-230). Among all of the potential substrates tested, only the peptides with N-terminal sequence of MDEL24 (SEQ ID NO: 45), DDDI24 (SEQ ID NO: 41) and EEEI24 (SEQ ID NO: 40) were acetylated, as shown in the following table:
The 24-mer substrate peptides differed in their 7 N-terminal amino acids while the 17 C-terminal residues (RWGRPVGRRRRPVRVYP, SEQ ID NO: 39) were kept constant: EEEI24 (EEEIAAL, SEQ ID NO: 40), DDDI24 (DDDIAAL, SEQ ID NO: 41), MDDD24 (MDDDIAA, SEQ ID NO: 42), SESS24 (SESSSKS, SEQ ID NO: 43), AVFA24 (AVFADLD, SEQ ID NO: 44), MDEL24 (MDELFPL, SEQ ID NO: 45), MELL24 (MELLSPP, SEQ ID NO: 46), MLGT24 (MLGTGPA, SEQ ID NO: 47), MTNK24 (MTNKSSL, SEQ ID NO: 48), MLGP24 (MLGPEGG, SEQ ID NO: 49), MAPL24 (MAPLDLD, SEQ ID NO: 50), MKKS24 (MKKSYSG, SEQ ID NO: 51).
Both MDEL (p65, SEQ ID NO: 8) and MDDD24 (unprocessed β-actin, SEQ ID NO: 42) represent cellular NatB substrates.

In the case of “MELL24: 24-mer substrate peptide: N-terminal MELLSPP (SEQ ID NO: 46) plus constant RWGRPVGRRRRPVRVYP (MELLSPPRWGRPVGRRRRPVRVYP)”, the Product formation is reported as 2.15 (±0.40) μM.
With “AVFA24: 24-mer substrate peptide: N-terminal AVFADLD (SEQ ID NO: 44) plus constant RWGRPVGRRRRPVRVYP (AVFADLDRWGRPVGRRRRPVRVYP)” the Product formation was −0.96 (±0.84) μM.
With “MAPL24: 24-mer substrate peptide: N-terminal MAPLDLD (SEQ ID NO: 50) plus constant RWGRPVGRRRRPVRVYP (MAPLDLDRWGRPVGRRRRPVRVYP)” the Product formation was 2.28 (±0.61) μM.
With “MTNK24: 24-mer substrate peptide: N-terminal MTNKSSL (SEQ ID NO: 48) plus constant RWGRPVGRRRRPVRVYP (MTNKSSLRWGRPVGRRRRPVRVYP)” the Product formation was −4.25 (±1.75) μM.
In the case of “MLGP24: 24-mer substrate peptide: N-terminal MLGPEGG (SEQ ID NO: 49) plus constant RWGRPVGRRRRPVRVYP (MLGPEGGRWGRPVGRRRRPVRVYP)”, the Product formation is reported as 2.06 (±1.49) μM.
For “DDDI24: 24-mer substrate peptide: N-terminal DDDIAAL (SEQ ID NO: 41) plus constant RWGRPVGRRRRPVRVYP (DDDIAALRWGRPVGRRRRPVRVYP)”, the Product formation was 50.5 (±1.0) μM.
In the case of “EEEI24: 24-mer substrate peptide: N-terminal EEEIAAL (SEQ ID NO: 40) plus constant RWGRPVGRRRRPVRVYP (EEEIAALRWGRPVGRRRRPVRVYP)”, the Product formation is reported as 42.4 (±0.95) μM.
For “SESS24: 24-mer substrate peptide: N-terminal SESSSKS (SEQ ID NO: 43) plus constant RWGRPVGRRRRPVRVYP (SESSSKSRWGRPVGRRRRPVRVYP)”, the Product formation was 1.14 (±3.35) μM.
“MKKS24: 24-mer substrate peptide: N-terminal MKKSYSG (SEQ ID NO: 51) plus constant RWGRPVGRRRRPVRVYP (MKKSYSGRWGRPVGRRRRPVRVYP)” was tested, and the Product formation was 3.37 (±1.71) μM.
